39 molecules from patent US20140274790A1 can be followed below.

Ends that are not written are not given here. NH2‑PEG4 = N-terminal amino-PEG4 group (N-terminal PEGylation)

B1: N-terminally PEGylated C35A-3/15 (NH2-PEG4-…-NH2) (peptide)
peptide: {NH2‑PEG4}-DCAYHRGELVWCT-NH2
modifications: not fully specified (bridges); printed as NH2-PEG4-DCAYHRGELVWCT-NH2; cysteine pairing not given here; also: coupled through PEG4 amine to HiTrap NHS-activated HP column

One assay has as its target human IgG (human). Nature of the assay: affinity column with 1.2 µmol immobilized peptide, 1 mL human serum applied, elution at pH 2.5, absorbance.
B1 gave a protein yield of the eluted fraction D of 10.4 mg.

A further assay concerns the target human IgG (human). Nature of the assay: SPR, synthetic peptide on human IgG.
Consider GDDCAYHRGELVWCTFH [C35A (P2D)], for which the Kd was determined as 0.0133 µM.

In the case of SDDCAYHRGELVWCTFY (not fully specified; cysteine pairing not given here) [C35A (P2D, H17Y)], the equilibrium dissociation constant (Kd) turned out to be 0.013 µM. The same measure, in the same setting: to GPDCAYHRGELVWCTHH [C35A (F16H)] belongs 0.0114 µM; to GPDCAYHRGELVWCTFY [C35A (H17Y)], 0.012 µM; to GPDCAYHRGELVWCSFH [C35A (T15S)], 0.0144 µM. GPSCAYHRGELVWCTFH [C35A (D3S)] displayed an equilibrium dissociation constant (Kd) of 0.0285 µM. Same read-out and setting: to SPDCAYHRGELVWCTFH [C35A (G1S)] belongs 0.0093 µM; to SPDCAYHRGELVWCTFY [C35A (G1S, H17Y)], 0.011 µM.

In the next assay the target is human IgG (human). Nature of the assay: SPR, synthetic peptide.
On to DCAYTNGNLVWCT [GFc-C35-3/15 (T5A)], for which the Kd turned out to be 61 µM. Molecule DCTWTNGNLVWCT [GFc-C35-3/15 (Y6W)] displayed a Kd of 50 µM. As for DCTYSNGNLVWCT [GFc-C35-3/15 (T7S)], the equilibrium dissociation constant (Kd) was found to be 26 µM.

Take PDCTYTNGNLVWCTF [GFc-C35-2/16]: the dissociation constant (Kd) was found to be 25 µM. For the molecule DCTYTNGNLVWCT [GFc-C35-3/15], the equilibrium dissociation constant (Kd) worked out at 130 µM. As to DCTYTNGNLIWCT [GFc-C35-3/15 (V12I)], the equilibrium dissociation constant (Kd) was 12 µM and the ratio of Kd against GFc-C35-3/15 is 0.1 fold. Consider DCTYRNGNLVWCT [GFc-C35-3/15 (T7R)], for which the Kd came out at 83 µM. Regarding DCTYHRGNLVWCT [GFc-C35-3/15 (T7H, N8R)], the equilibrium dissociation constant (Kd) came out at 1.1 µM.

For DCAYHRGNLVWCT [GFc-C35-3/15 (T7H, N8R, T5A)], the dissociation constant (Kd) came to 0.25 µM. Regarding GPRCAYHRGELVWCSFH [C35A (D3R, T15S)], the Kd is 0.042 µM and the ratio of Kd against C35A-3/15 (D3R, T15S) is 0.333 fold. DCTFTNGNLVWCT [GFc-C35-3/15 (Y6F)] came in with a dissociation constant (Kd) of 2100 µM.

Molecule RCAYHRGELVWCS [GFc-C35-3/15 (D3R, T5A, T7H, N8R, N10E, T15S)] returned a dissociation constant (Kd) of 0.147 µM. For DCTYTNGELVWCT [GFc-C35-3/15 (N10E)], the Kd was 26 µM. In the case of DCTYTRGNLVWCT [GFc-C35-3/15 (N8R)], the equilibrium dissociation constant (Kd) is 8 µM and the fold decrease of Kd against GFc-C35-3/15 turned out to be 18 fold. DCTYHRGELVWCT [GFc-C35-3/15 (T7H, N8R, N10E)] came in with a Kd of 0.27 µM. Turning to DCTYTNGRLVWCT [GFc-C35-3/15 (N10R)], the Kd is 42 µM. On to DCTYHRGNLIWCT [GFc-C35-3/15 (T7H, N8R, V12I)], for which the Kd stood at 4.8 µM.

With DCAYHRGELVWCT (not fully specified (bridges); cysteine pairing not given here) [GFc-C35-3/15 (T5A, T7H, N8R, N10E)], the dissociation constant Kd came out at 0.054 µM and the fold higher affinity than GFc-C35-3/15 was 2400 fold. DCTYTLGNLVWCT [GFc-C35-3/15 (N8L)]: the Kd amounted to 260 µM. As to DCTYTNGNMVWCT [GFc-C35-3/15 (L11M)], the Kd is 280 µM and the ratio of Kd against GFc-C35-3/15 stood at 2 fold. For DCTYTNGNLVWCS [GFc-C35-3/15 (T15S)], in that order: 34 µM and 0.25 fold.

Consider DCSYTNGNLVWCT [GFc-C35-3/15 (T5S)], for which the Kd is 120 µM. On to RCTYTNGNLVWCT [GFc-C35-3/15 (D3R)], for which the dissociation constant (Kd) was determined as 69 µM. For DCTYTNGDLVWCT [GFc-C35-3/15 (N10D)], the Kd is 80 µM. DCTWHRGNLVWCT [GFc-C35-3/15 (T7H, N8R, Y6W)] had an equilibrium dissociation constant (Kd) of 2 µM. Turning to DCTYHNGNLVWCT [GFc-C35-3/15 (T7H)], the Kd was determined as 3 µM and the fold increase of affinity against GFc-C35-3/15 amounted to 50 fold. On to GPDCTYTNGNLVWCTFH (not fully specified (bridges); cysteine pairing not given here) [GFc-C35], for which the equilibrium dissociation constant (Kd) was 14 µM. Same read-out and setting: with DCAWHRGELVWCT [GFc-C35-3/15 (T5A, Y6W, T7H, N8R, N10E)] the figure was 0.26 µM. As to GPDCAYHRGELVWCTFH [C35A], the dissociation constant (Kd) was 0.009 µM and the ratio of Kd against C35A-3/15 is 0.2 fold. On to DCTYTNGQLVWCT [GFc-C35-3/15 (N10Q)], for which the Kd came to 160 µM.

The target in the next assay is human IgG (human). Nature of the assay: SPR sensorgram analysis.
In the case of DCAYHRGELVWCT (not fully specified (bridges); cysteine pairing not given here) [GFc-C35-3/15 (T5A, T7H, N8R, N10E)], the dissociation rate constant (koff) is 0.025 s⁻¹, the kon stood at 460000 M⁻¹ s⁻¹ and the ratio of Kd against GFc-C35-3/15 stood at 0.0417 fold. For DCAWHRGELVWCT [GFc-C35-3/15 (T5A, Y6W, T7H, N8R, N10E)], the Kd was found to be 0.257 µM; the koff came out at 0.014 s⁻¹; the association rate constant (kon) came to 54000 M⁻¹ s⁻¹; the ratio of ka against GFc-C35-3/15 (T5A, T7H, N8R, N10E) is less than 0.125 fold. The ratio of kd against GFc-C35-3/15 (T5A, T7H, N8R, N10E) was 0.5 fold.

Usually Kd stands for the free concentration of one partner at which half of the binding sites on the other are occupied at equilibrium, for simple one-to-one binding. One may read the koff as the rate constant with which the complex falls apart. Low readings indicate slow dissociation, high ones fast dissociation. As a reminder, the kon is a measure of how fast the partners come together. Lower therefore signals slow association.
